From the supplement of paper PMC9112550, “Optimization of the antimicrobial peptide Bac7 by deep mutational scanning” (BMC Biology, 2022) come the findings set out here.
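Also: peptides expressed intracellularly from a pBAD plasmid library in pooled LB shake-flask culture, induced with 0.3% L-arabinose, DNA abundance read by NGS, three biological replicates, DESeq2 with apeglm shrinkage.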

The subject of the data set is Escherichia coli TOP10. The data set is described as follows: shrunken log2 fold change of peptide-encoding DNA abundance (4.5 h post-induction vs induction); higher = less antimicrobial activity (less host growth inhibition). The following applies: time post-induction: 4.5 h; library: site-saturation at positions 5, 18, 19, 20.
RRIRYRPPRLPRPRPRPYPFPRP: the “shrunken log2 fold change” value was -0.0218.
Next, RRIRRRPPRLPRPRPRPMCDPRP: 0.308.
RRIRGRPPRLPRPRPRPGQNPRP: the “shrunken log2 fold change” value was 0.0139.
With RRIRNRPPRLPRPRPRPYVAPRP, the “shrunken log2 fold change” value is -0.931.
Next, RRIRTRPPRLPRPRPRPAMHPRP: 0.289; RRIRRRPPRLPRPRPRPSVNPRP: -0.308; RRIRFRPPRLPRPRPRPCCLPRP: -0.725.
With RRIRFRPPRLPRPRPRPYWMPRP the figure was -0.371.
As to RRIRYRPPRLPRPRPRPKPEPRP, the “shrunken log2 fold change” value is -0.0857.
On to RRIRIRPPRLPRPRPRPSSHPRP, for which the “shrunken log2 fold change” value is -1.02.
RRIRERPPRLPRPRPRPKAVPRP: the “shrunken log2 fold change” value is 0.0311.
Next, RRIRWRPPRLPRPRPRPDYKPRP: -0.0643; RRIRSRPPRLPRPRPRPTLFPRP: 0.206; RRIRLRPPRLPRPRPRPPCLPRP: 0.0124.
With RRIRQRPPRLPRPRPRPDYRPRP the figure was -0.00448; with RRIRRRPPRLPRPRPRPIMVPRP, -0.371; with RRIRWRPPRLPRPRPRPFPKPRP, 0.0146.
With RRIRNRPPRLPRPRPRPKRSPRP, the “shrunken log2 fold change” value came to 0.115.
With RRIRTRPPRLPRPRPRPPLIPRP the figure was 0.0432; with RRIRDRPPRLPRPRPRPLWCPRP, -0.15.
RRIRYRPPRLPRPRPRPIHKPRP: the “shrunken log2 fold change” value is -0.6.
With RRIRFRPPRLPRPRPRPCQVPRP the figure was 0.084; with RRIRQRPPRLPRPRPRPFRRPRP, 0.0238; with RRIRWRPPRLPRPRPRPKTHPRP, 0.293.
For RRIRWRPPRLPRPRPRPIATPRP, the “shrunken log2 fold change” value came to 0.435.
Next, RRIRARPPRLPRPRPRPHVYPRP: -0.0492; RRIRCRPPRLPRPRPRPLIVPRP: -0.596; RRIRWRPPRLPRPRPRPKVEPRP: -0.0433.
Take RRIRQRPPRLPRPRPRPNYHPRP: the “shrunken log2 fold change” value was -0.676.
Turning to RRIRIRPPRLPRPRPRPVGRPRP, the “shrunken log2 fold change” value was 0.0883.
Next, RRIRTRPPRLPRPRPRPMVYPRP: -0.09; RRIRRRPPRLPRPRPRPENRPRP: 0.0232.
With RRIRTRPPRLPRPRPRPKWVPRP the figure was 0.129.
Consider RRIRCRPPRLPRPRPRPENNPRP, for which the “shrunken log2 fold change” value was -0.303.
Turning to RRIRERPPRLPRPRPRPWWGPRP, the “shrunken log2 fold change” value is -0.081.
RRIRNRPPRLPRPRPRPLQYPRP: the “shrunken log2 fold change” value is -0.0315.
On to RRIRHRPPRLPRPRPRPKPCPRP, for which the “shrunken log2 fold change” value is -0.139.
For the sequence RRIRIRPPRLPRPRPRPMMMPRP, the “shrunken log2 fold change” value was -0.227.
As for RRIRHRPPRLPRPRPRPFGYPRP, the “shrunken log2 fold change” value was -0.133.
With RRIRFRPPRLPRPRPRPPTFPRP, the “shrunken log2 fold change” value was -0.0402.
For RRIRYRPPRLPRPRPRPAFRPRP, the “shrunken log2 fold change” value was -0.287.
On to RRIRPRPPRLPRPRPRPARKPRP, for which the “shrunken log2 fold change” value was 0.705.
Consider RRIRFRPPRLPRPRPRPATDPRP, for which the “shrunken log2 fold change” value was -0.0766.
On to RRIRRRPPRLPRPRPRPPMWPRP, for which the “shrunken log2 fold change” value was found to be 0.548.
Regarding RRIRRRPPRLPRPRPRPGTVPRP, the “shrunken log2 fold change” value was found to be 0.0962.
With RRIRMRPPRLPRPRPRPGVIPRP the figure was 3.26; with RRIRLRPPRLPRPRPRPPQKPRP, 0.131; with RRIRCRPPRLPRPRPRPDRDPRP, 0.108.
In the case of RRIRKRPPRLPRPRPRPSLVPRP, the “shrunken log2 fold change” value came to 0.174.
Next, RRIRGRPPRLPRPRPRPQMVPRP: 0.166.
